Results published in article doi:10.1101/2019.12.20.884148.

Biological target: Galectin-3 (R&D Systems) (UniProt P17931)
Assay: SPR

Chain of UniProt P17931 (P17931 whole entry): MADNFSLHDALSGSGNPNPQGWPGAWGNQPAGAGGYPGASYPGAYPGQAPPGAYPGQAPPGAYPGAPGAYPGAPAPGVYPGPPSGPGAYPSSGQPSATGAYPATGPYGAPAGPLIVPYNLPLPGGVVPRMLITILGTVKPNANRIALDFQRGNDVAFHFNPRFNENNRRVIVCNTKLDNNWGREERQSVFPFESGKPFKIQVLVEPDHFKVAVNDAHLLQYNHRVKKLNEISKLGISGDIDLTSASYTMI

Substance: Bovine lubricin (bPRG4) (natural protein)
- Kd: 3.8 µM
